From article PMC9482650, “Quantitative fragmentomics allow affinity mapping of interactomes” (Nature Communications, 2022)

Key:
Assay in all cases: holdup assay
Design in all cases: key: below the threshold = too weak to quantify, mostly under pKd 3.1 to 4
[1] = molecular target: FRMPD4, Q14CM0
[2] = molecular target: DLG2_3, Q15700
[3] = molecular target: T1, PTPN13_1, Q12923
T1 sequence (Q12923 1088-1188, limits assumed, looked up): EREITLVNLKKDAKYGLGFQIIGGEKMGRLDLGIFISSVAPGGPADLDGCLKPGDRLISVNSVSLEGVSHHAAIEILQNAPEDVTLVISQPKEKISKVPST

[4] = molecular target: T2, PDZD7_3, Q9H5P4
T2 sequence (Q9H5P4 857-944, limits assumed, looked up): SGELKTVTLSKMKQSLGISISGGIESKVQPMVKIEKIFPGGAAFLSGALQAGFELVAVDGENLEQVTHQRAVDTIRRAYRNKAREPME

[5] = molecular target: Inadl_6, Q8NI35
[6] = molecular target: PDZRN4_1, Q6ZMN7
[7] = molecular target: GRASP, Q7Z6J2
[8] = molecular target: T3, APBA3_1, O96018
T3 sequence (O96018 389-490, limits assumed, looked up): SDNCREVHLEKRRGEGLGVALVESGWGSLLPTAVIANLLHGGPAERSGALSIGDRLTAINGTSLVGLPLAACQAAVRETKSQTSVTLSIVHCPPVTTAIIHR

[9] = molecular target: LNX1_2, Q8TBB1
[10] = molecular target: T4, FRMPD1, Q5SYB0
T4 sequence (Q5SYB0 52-145, limits assumed, looked up): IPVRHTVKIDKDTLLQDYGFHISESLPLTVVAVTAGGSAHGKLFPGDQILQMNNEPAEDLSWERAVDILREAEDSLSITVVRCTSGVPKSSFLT

[11] = molecular target: GRIP2_4, Q9C0E4
[12] = molecular target: ARHGEF12, Q9NZN5-2
[13] = molecular target: T5, TIAM2, Q8IVF5
T5 sequence (Q8IVF5 885-986, limits assumed, looked up): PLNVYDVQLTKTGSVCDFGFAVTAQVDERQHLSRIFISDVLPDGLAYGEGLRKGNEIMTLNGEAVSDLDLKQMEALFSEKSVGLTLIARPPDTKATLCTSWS

[14] = molecular target: T6, DVL3, Q92997
T6 sequence (Q92997 244-331, limits assumed, looked up): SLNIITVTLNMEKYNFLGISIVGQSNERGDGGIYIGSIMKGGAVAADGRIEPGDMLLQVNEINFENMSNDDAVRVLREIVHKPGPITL

[15] = molecular target: FRMPD2_1, Q68DX3
[16] = molecular target: FRMPD2_2, Q68DX3
[17] = molecular target: NHERF4_4, Q86UT5
[18] = molecular target: FRMPD2_3, Q68DX3
[19] = molecular target: T7, SNTG2, Q9NY99
T7 sequence (Q9NY99 68-166, limits assumed, looked up): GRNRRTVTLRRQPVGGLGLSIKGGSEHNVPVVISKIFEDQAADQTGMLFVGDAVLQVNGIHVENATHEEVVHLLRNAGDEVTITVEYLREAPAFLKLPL

[20] = molecular target: T8, RAPGEF6, Q8TEU7
T8 sequence (Q8TEU7 525-625, limits assumed, looked up): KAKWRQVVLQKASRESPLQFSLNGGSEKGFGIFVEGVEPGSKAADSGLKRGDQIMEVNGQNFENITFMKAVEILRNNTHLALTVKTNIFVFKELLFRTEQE

[21] = molecular target: MAGI2_3, Q86UL8
[22] = molecular target: LNX1_1, Q8TBB1
[23] = molecular target: MAGI2_6, Q86UL8
[24] = molecular target: T9, SIPA1L2, Q9P2F8
T9 sequence (Q9P2F8 945-1036, limits assumed, looked up): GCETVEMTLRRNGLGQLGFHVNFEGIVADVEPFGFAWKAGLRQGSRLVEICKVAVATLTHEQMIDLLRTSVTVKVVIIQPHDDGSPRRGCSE

[25] = molecular target: T10, HTRA4, P83105
T10 sequence (P83105 378-476, limits assumed, looked up): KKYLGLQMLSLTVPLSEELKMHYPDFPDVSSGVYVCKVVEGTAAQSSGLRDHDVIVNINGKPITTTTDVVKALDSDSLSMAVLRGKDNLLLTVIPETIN

[26] = molecular target: Inadl_8, Q8NI35
[27] = molecular target: T11, RHPN1, Q8TCX5
T11 sequence (Q8TCX5 508-602, limits assumed, looked up): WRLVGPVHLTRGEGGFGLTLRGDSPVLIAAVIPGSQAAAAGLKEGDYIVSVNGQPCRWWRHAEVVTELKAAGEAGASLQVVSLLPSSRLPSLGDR

[28] = modified: phospho on T at position -2 from the C-terminal residue
[29] = plain residues with an end cap or a label only (N-terminal biotin on a linker: ado-ado)

Measured: pKd

Chain of GRIP2_4, Q9C0E4 (Q9C0E4 446-548): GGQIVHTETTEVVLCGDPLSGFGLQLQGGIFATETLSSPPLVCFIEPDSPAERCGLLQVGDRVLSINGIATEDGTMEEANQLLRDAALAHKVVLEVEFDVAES
Chain of FRMPD4, Q14CM0 (Q14CM0 67-160): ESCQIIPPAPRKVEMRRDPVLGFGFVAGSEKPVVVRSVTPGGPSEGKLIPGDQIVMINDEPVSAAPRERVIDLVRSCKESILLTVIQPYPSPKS
Chain of MAGI2_6, Q86UL8 (Q86UL8 1141-1229): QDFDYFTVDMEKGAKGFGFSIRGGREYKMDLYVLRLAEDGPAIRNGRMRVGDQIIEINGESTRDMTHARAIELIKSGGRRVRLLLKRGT
Chain of Inadl_6, Q8NI35 (Q8NI35 1058-1167): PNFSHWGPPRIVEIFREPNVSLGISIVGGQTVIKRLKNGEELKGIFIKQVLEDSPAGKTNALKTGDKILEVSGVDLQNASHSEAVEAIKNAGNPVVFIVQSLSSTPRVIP
Chain of LNX1_1, Q8TBB1 (Q8TBB1 261-371): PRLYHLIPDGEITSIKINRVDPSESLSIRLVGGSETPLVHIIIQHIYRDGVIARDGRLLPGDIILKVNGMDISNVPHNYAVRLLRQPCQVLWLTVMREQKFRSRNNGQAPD
Chain of Inadl_8, Q8NI35 (Q8NI35 1425-1530): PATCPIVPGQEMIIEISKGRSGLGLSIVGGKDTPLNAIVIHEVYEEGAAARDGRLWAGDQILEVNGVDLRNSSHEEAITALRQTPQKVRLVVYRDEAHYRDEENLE
Chain of PDZRN4_1, Q6ZMN7 (Q6ZMN7 213-318): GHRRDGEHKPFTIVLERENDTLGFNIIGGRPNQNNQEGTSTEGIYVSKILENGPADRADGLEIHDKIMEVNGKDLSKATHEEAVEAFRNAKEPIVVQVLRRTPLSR
Chain of GRASP, Q7Z6J2 (Q7Z6J2 96-193): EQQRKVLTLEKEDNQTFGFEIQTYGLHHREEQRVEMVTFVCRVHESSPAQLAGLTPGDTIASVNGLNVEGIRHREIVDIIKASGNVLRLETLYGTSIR
Chain of NHERF4_4, Q86UT5 (Q86UT5 464-550): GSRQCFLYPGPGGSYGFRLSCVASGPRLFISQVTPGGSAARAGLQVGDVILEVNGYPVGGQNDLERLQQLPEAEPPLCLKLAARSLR
Chain of LNX1_2, Q8TBB1 (Q8TBB1 371-470): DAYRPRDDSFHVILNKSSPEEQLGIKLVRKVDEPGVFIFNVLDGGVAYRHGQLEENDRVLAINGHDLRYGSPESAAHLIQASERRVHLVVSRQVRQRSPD
Chain of FRMPD2_2, Q68DX3 (Q68DX3 944-1038): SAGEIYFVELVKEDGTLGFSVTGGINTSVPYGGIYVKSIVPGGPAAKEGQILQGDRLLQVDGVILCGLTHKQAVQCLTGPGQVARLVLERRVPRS
Chain of FRMPD2_1, Q68DX3 (Q68DX3 770-861): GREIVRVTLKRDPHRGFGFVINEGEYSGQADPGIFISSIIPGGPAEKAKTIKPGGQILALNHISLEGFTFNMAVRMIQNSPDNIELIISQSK
Chain of ARHGEF12, Q9NZN5-2 (Q9NZN5 other isoform, or with tags, fused parts or gaps): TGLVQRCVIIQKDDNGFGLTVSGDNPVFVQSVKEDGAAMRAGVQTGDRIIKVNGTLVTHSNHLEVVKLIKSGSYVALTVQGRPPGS
Chain of MAGI2_3, Q86UL8 (Q86UL8 600-682): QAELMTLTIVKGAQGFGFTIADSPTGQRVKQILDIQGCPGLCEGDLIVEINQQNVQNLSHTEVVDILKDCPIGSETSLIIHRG
Chain of FRMPD2_3, Q68DX3 (Q68DX3 1073-1166): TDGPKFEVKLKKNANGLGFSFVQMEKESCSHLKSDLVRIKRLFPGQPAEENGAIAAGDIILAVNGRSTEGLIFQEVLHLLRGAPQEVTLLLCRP

SSRTRRETQL [HPV16-E6_-2P, P03126]
below the threshold: [2]; [28] | [3]; [28] | [4]; [28] | [5]; [28] | [6]; [28] | [7]; [28] | [8]; [28] | [9]; [28] | [10]; [28] | [11]; [28] | [12]; [28] | [13]; [28] | [14]; [28] | [15]; [28] | [16]; [28] | [17]; [28] | [18]; [28] | [19]; [28] | [20]; [28] | [21]; [28] | [22]; [28] | [23]; [28] | [24]; [28] | [25]; [28] | [26]; [28] | [27]; [28]
3.88: [1]; [28]

AQRARSPSDV [GPR12, P47775]
3.67: [2]; [29]
below the threshold: [1]; [29] | [3]; [29] | [5]; [29] | [6]; [29] | [7]; [29] | [8]; [29] | [9]; [29] | [10]; [29] | [11]; [29] | [12]; [29] | [14]; [29] | [15]; [29] | [16]; [29] | [17]; [29] | [18]; [29] | [19]; [29] | [20]; [29] | [23]; [29] | [24]; [29] | [25]; [29] | [27]; [29]
3.79: [22]; [29]
3.48: [4]; [29]
4.05: [13]; [29]
3.7: [21]; [29]
4.6: [26]; [29]
